Experimental data: the RNAGym collection of RNA variant scans (doi:10.1073/pnas.2313332121)
Fewer inactive variants are shown than the library holds.

B1: TPR 5TU (parent)
chain: GGAUCUUCUCGAUCUAACAAAAAAGACAAAUCUGCCACAAAGCUUGAGAGCAUCUUCGGAUGCAGAGGCGGCAGCCUUCGGUGGCGCGAUAGCGCCAACGUUCUCAACUAUGACACGCAAAACGCGUGCUCCGUUGAAUGGAGUUUAUCAUG

Variants of: B1
Experiment: polymerase ribozyme fitness, log enrichment relative to wild type (log ratio); higher = more active; in vitro selection for triplet polymerase activity
Method in brief: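 Frozen incubation at −7 °C formed the core of a single, triplicate in vitro selection round applied to PCR-built, transcribed mutant libraries of each subunit of a heterodimeric triplet polymerase ribozyme. Extended constructs were gel-excised, captured with streptavidin beads and amplified by RT-PCR, and input and output libraries were Illumina-sequenced with a filter of ≥10 input reads and ≥1 read per output. Fitness is the logarithm of genotype enrichment relative to wild-type enrichment, with inverse-variance-weighted replicate averaging, and the logarithm is base 2.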

Row | Variant | polymerase ribozyme fitness (log ratio)
1 | A26G C32U U33G A49U A91U | ≤ -4.2
2 | C27A U44A G48A | ≤ -4.2
3 | G25U C76U G94C A120G | -2.88
4 | A26C U82A C95A | -2
5 | G25C U56G G84A A89G U130C | -2.97
6 | A26U C96U A142C | -3.03
7 | A26G A52G U90G U135A G136C | ≤ -4.2
8 | G25U A49C G68U G84A C87G A89U G94C C114A U148G | ≤ -4.2
9 | G25U C69G U146A | -4.05
10 | A26G A28G C87A C105G C108U C125A | ≤ -4.2
11 | G25U G86A C105U | -3.5
12 | A26C C93G U139G G140U | -4.11
13 | G25U C132U | -2.32
14 | G25U G83A A119C | -2.78
15 | A26C G84C C108G G133A | ≤ -4.2
16 | A26C G84C C108G G133U | ≤ -4.2
17 | A26U C35U U55A C96G G124A | ≤ -4.2
18 | A26U U55A G74A G92A A110U G136A | ≤ -4.2
19 | C27A U33G A39G A60C C93U U127C G140A | -4.14
20 | G25U C35G A40G A47U A91C A107G G133C | ≤ -4.2
21 | A26C A41G C54U C75G G88A A107G | ≤ -4.2
22 | G25U G81A G94U A120U G141C | -3.76
23 | A26G C36A | ≤ -4.2
24 | A26U | -1.21

Row | Variant | polymerase ribozyme fitness (log ratio)
25 | A26C | -1.49
26 | A26G | -2.11
27 | A26G C99U | -3.69
28 | A26U U33A A47G G62A G94U C105U A110U | ≤ -4.2
29 | A26U G46U G58A A73U C85G U111G A150U | ≤ -4.2
30 | A26U C51U A52U C54G G86U C99A A107C C123G | ≤ -4.2
31 | A26C C79A C87A U134C A150U | ≤ -4.2
32 | C27A C85A G86U A91C U101A C118G | ≤ -4.2
33 | A26U C51U C72U A73U C85A C99G G100C U111G | ≤ -4.2
34 | A26G C35U | -3.06
35 | A26C C38U G86U U144G | -3.75
36 | C27A C54U A91C G94C | ≤ -4.2
37 | A26C A52G | -1.25
38 | G25U A26C A49G U61A C76U U104A C114U A119C | ≤ -4.2
39 | A26U A49G C57A G88U G92A G100A A106U C125U | ≤ -4.2
40 | C27A G50C G80A C95U | ≤ -4.2
41 | A26G C72U U78G C85G | ≤ -4.2
42 | C27A G34U U53A G71C G88U C96U U144A U146A | ≤ -4.2
43 | G25U A39U U53A C76G U145A | ≤ -4.2
44 | A26U C35U C87A G124C | ≤ -4.2
45 | G25U G59A G62C C116U U145A | -1.79
46 | A26C G92C U104C C108U A115C | ≤ -4.2
47 | G25C U53A U61A C95G | -4.18
48 | C27A A28G A40C A47C A73C U77C C99G | ≤ -4.2

Row | Variant | polymerase ribozyme fitness (log ratio)
49 | A26C C96A A120G G124U | -2.02
50 | A26C G42A G46C A49G A52C C54U A91U C99U U109G C132U G140U | ≤ -4.2
51 | A26C G42A A107C | ≤ -4.2
52 | C27A A49U C87A U134C G141A | ≤ -4.2
53 | A26U G83U C95G C105A G141A U146C U151C | ≤ -4.2
54 | A26U A39U G58A A66C C93U C149G | ≤ -4.2
55 | A26U C96U | -1.62
56 | A26U A39C U45A A60C U61G G83C U102C U111G | ≤ -4.2
57 | A26G C75U C96U | ≤ -4.2
58 | A26C G81A C85G C87A G141U C149G | ≤ -4.2
59 | C27A A52G G128U C129U C131G A147U | ≤ -4.2
60 | C27A G58U C95U C96A G124U | -4.08
61 | A26C C76A | -3.75
62 | C27A G58A C76G C99U U101G | ≤ -4.2
63 | A26C C93G C114U | -4.19
64 | G25U G48A G84A C96G | -4.04
65 | A26U A60G C69A A97U C114U U135C | ≤ -4.2
66 | A26C G83C | -2.82
67 | A26G A39G C85U | ≤ -4.2
68 | A26U A49U C87A U134G | ≤ -4.2
69 | A26G A89C A97C G143C | ≤ -4.2
70 | G25U C27U C93U G143U | ≤ -4.2
71 | A26G U53A G88U G92U C118A A147G | ≤ -4.2
72 | A26U G50A A64G U101G G141A | ≤ -4.2

Row | Variant | polymerase ribozyme fitness (log ratio)
73 | C27A G86A G94A U102G C132U G133U U134A | ≤ -4.2
74 | G25U G50C U77A C87U A107G | ≤ -4.2
75 | A26U C43U U53A G100C | ≤ -4.2
76 | A26U C51A C54A C57U U90C C93G | ≤ -4.2
77 | C27A C36U C87G G126C C149U | ≤ -4.2
78 | A26U A29C A47G A49U G59C G65A G117C U139G | ≤ -4.2
79 | A26U C35G C69A G92A C96A A97G A120C | ≤ -4.2
80 | C27A A106C A113U C125A | ≤ -4.2
81 | A26U C103A C114U | ≤ -4.2
82 | A26C C93A | -3.21
83 | G25U G71C U145G | ≤ -4.2
84 | G25U A49G G59U C99A | ≤ -4.2
85 | A26U A49C U111G | ≤ -4.2
86 | G25U A39U U55A U102C U109G C114U A120U A122G U144G | ≤ -4.2
87 | C27A A28U C38U A39U A47U | ≤ -4.2
88 | A26C G100U | -4
89 | A26U C51U A64U C125U | ≤ -4.2
90 | C27A U55A G71A U77C C95U A113C C149G | ≤ -4.2
91 | A26C A52U A89C | -3.85
92 | A26C C32G C57G | ≤ -4.2
93 | A26C G92C | -2.71
94 | A26G C95U C96U | -4.16
95 | A26G U77A C87U A89C | ≤ -4.2
96 | G25U C85G C132G | ≤ -4.2

Row | Variant | polymerase ribozyme fitness (log ratio)
97 | A26U G62U U135A | -2.77
98 | G25U A41G U53G C54U G92C G124A U151C | ≤ -4.2
99 | A26C C57A A60C G88A U109G A110G C118G | -3.98
100 | C27A U33C C85A A106G U144A U151C | ≤ -4.2
101 | G25U U61G | -2.3
102 | G25U U61A | -3.25
103 | C27A A66C A73C G92U U148C | ≤ -4.2
104 | A26U A91G G140C C149A | ≤ -4.2
105 | G25U A30G A47G C51U G80C A110C | ≤ -4.2
106 | A26U G94C | -2.1
107 | A26C G117C | -2.51
108 | A26U A41C G71U C95A | ≤ -4.2
109 | C27A G71U | ≤ -4.2
110 | A26G C43U U45A G59C G88A | ≤ -4.2
111 | G25U U45A | ≤ -4.2
112 | A26U C69G A142U | -2.62
113 | A26C U56A A60U U82G | -2.45
114 | A26U C93U C118U C125A | ≤ -4.2
115 | A26C C32G C54U C87G C95U | -3.91
116 | G25U C96A A142G | -4.05
117 | C27A | -2.95
118 | A26G A29C C79A G100A | ≤ -4.2
119 | A26G G92U | -3.31
120 | G25U G83A | -3.4

Row | Variant | polymerase ribozyme fitness (log ratio)
121 | A26U G59A C87G | ≤ -4.2
122 | G25U G84U | -3.64
123 | A26U G46U | -3.87
124 | C27A U45G G46A A60U C95G G124U | ≤ -4.2
125 | G25U U61G C99G A106G A107U A150G | ≤ -4.2
126 | C27A C75U C93G A115U | ≤ -4.2
127 | G25U C38U A47U U56G U61A G65C C79G C103G U134A | ≤ -4.2
128 | A26G C38A A60U A64C C76U | ≤ -4.2
129 | A26U G62A | -1.51
130 | G25U C69A U82G A89G C125U C149U | ≤ -4.2
131 | G25U A66U C93U G94U C125A G126U | ≤ -4.2
132 | C27A C79A G84A G86U | ≤ -4.2
133 | G25U G46C G50C A66G U90C G100C U104A U146C G152A | ≤ -4.2
134 | A26C A52U C54U G58A G71A G74C C87U C108A | ≤ -4.2
135 | A26U A49G C95U | -3.28
136 | A26C G86A U102A G128U C131G | ≤ -4.2
137 | A26U U78A C96A C116U U146C | ≤ -4.2
138 | A26G A89U | -4.16
139 | A26U C118U | -0.616
140 | A26U C118A | -2.33
141 | A26C G81A C87U G88C G124C G136U G140C | ≤ -4.2
142 | A26U G42U U44A U55A G59U C103G A119G A120U G140U | ≤ -4.2
143 | A26U A49U G68U C72U G84A G86U G112A A122G | ≤ -4.2
144 | A26U C54A C93A A138C G141C | ≤ -4.2

Row | Variant | polymerase ribozyme fitness (log ratio)
145 | C27A A28C C57G C76A A91C | ≤ -4.2
146 | A26U A37C A47G C85U U90A U145A U146C | ≤ -4.2
147 | A26U C36U U44A C57A G68C C118A U135G | ≤ -4.2
148 | A26U C36A G68C G86U G88C | ≤ -4.2
149 | A26C A30U C79U | ≤ -4.2
150 | A26C A73G C105U U146G | -3.66
151 | A26C C35U U44A C57U G58U C85A | ≤ -4.2
152 | A26U G34U G59C G62A C75G C93G U104A G152A | ≤ -4.2
153 | C27A G46A U53A U56G A91C A106C A110G A138G | ≤ -4.2
154 | A26C A52C U53A | ≤ -4.2
155 | A26G U55A | -2.03
156 | A26U U45A G83U G92C A122U | ≤ -4.2
157 | A26G U33C C85U | ≤ -4.2
158 | G25U G50C C76A C87A U139G G141C | -4.02
159 | A26U U104C G124C | -3.3
160 | A26U G68C G86U C103G A115C | ≤ -4.2
161 | A26C U55A C75A G80C G94A C105A | ≤ -4.2
162 | A26U G42U | ≤ -4.2
163 | A26U G59A G83A C87G C93G A97G U104C U139C | ≤ -4.2
164 | A26U C85U C105U A142C | -3.69
165 | A26C G50U C54U C96G | -3.92
166 | A26C U134G | -4.1
167 | A26G C69U C79U C87U A91U | ≤ -4.2
